± gives the uncertainty stated by the source.
B1: library; the commonest letter at each place (parent)
chain: MKPVTLYDVAEYAGVSYQTVSRVVNQASHVSAKTREKVEAAMAELNYIPNRVAQQLAGKQSLLIGVATSSLALHAPSQIVAAIKSRADQLGASVVVSMVERSGVEACKAAVHNLLAQRVSGLIINYPLDDQDAIAVEAACTNVPALFLDVSDQTPINSIIFSHEDGTRLGVEHLVALGHQQIALLAGPLSSVSARLRLAGWHKYLTRNQIQPIAEREGDWSAMSGFQQTMQMLNEGIVPTAMLVANDQMALGAMRAITESGLRVGADISVVGYDDTEDSSCYIPPLTTIKQDFRLLGQTSVDRLLQLSQGQAVKGNQLLPVSLVKRKTTLAPNTQTASPRALADSLMQLARQVSRLESGQ

Experiments:
Settings in all cases: with IPTG
[1] = variants of: B1
Experimental: (§1)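 LacI variants on the pVER plasmid regulate eYFP behind lacO in E. coli MG1655Δlac, grown in rich M9 at 37 °C with a 2-fold IPTG dilution series. After two 160-min growth steps, YFP is read by flow cytometry and calibrated to MEF. Bayesian MCMC fits of the Hill equation give G0, G∞, EC50 and n (posterior mean ± SD).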

[2] = variants of: B1; experiment: Hill coefficient n (dimensionless); higher = steeper dose response
Experimental: as §1

[3] = variants of: B1; experiment: basal output G0 (YFP, no IPTG) (log10 MEF); higher = higher reporter expression without inducer
Experimental: as §1

[4] = variants of: B1; experiment: saturating output G-infinity (YFP) (log10 MEF); higher = higher reporter expression at saturating IPTG
Experimental: as §1

Variant: S120G M223L F226L L319F R355L
- EC50 for IPTG (log10 µmol/L) [1]: 2.248 ± 0.015
- Hill coefficient n [2]: 1.51 ± 0.035
- basal output G0 (log10) [3]: 2.781 ± 0.021
- saturating output G-infinity (log10) [4]: 4.407 ± 0.0067

Variant: G121V G261V
- EC50 for IPTG (log10 µmol/L) [1]: 1.847 ± 0.017
- Hill coefficient n [2]: 1.58 ± 0.052
- basal output G0 (log10) [3]: 2.58 ± 0.083
- saturating output G-infinity (log10) [4]: 4.418 ± 0.0075

Variant: N125D
- EC50 for IPTG (log10 µmol/L) [1]: 2.739 ± 0.019
- Hill coefficient n [2]: 1.27 ± 0.038
- basal output G0 (log10) [3]: 2.73 ± 0.035
- saturating output G-infinity (log10) [4]: 4.445 ± 0.0072

Variant: D130E
- EC50 for IPTG (log10 µmol/L) [1]: 1.902 ± 0.012
- Hill coefficient n [2]: 1.76 ± 0.057
- basal output G0 (log10) [3]: 2.29 ± 0.45
- saturating output G-infinity (log10) [4]: 4.467 ± 0.0052

Variant: V136E
- EC50 for IPTG (log10 µmol/L) [1]: 1.69 ± 0.034
- Hill coefficient n [2]: 1.5 ± 0.13
- basal output G0 (log10) [3]: 2.46 ± 0.36
- saturating output G-infinity (log10) [4]: 4.015 ± 0.014

Variant: V136E F161V
- EC50 for IPTG (log10 µmol/L) [1]: 3.713 ± 0.031
- Hill coefficient n [2]: 1.84 ± 0.2
- basal output G0 (log10) [3]: 4.516 ± 0.0031
- saturating output G-infinity (log10) [4]: 4.229 ± 0.011

Variant: V136E L169P
- EC50 for IPTG (log10 µmol/L) [1]: 4.914 ± 0.028
- Hill coefficient n [2]: 2.33 ± 0.32
- basal output G0 (log10) [3]: 4.5429 ± 0.0026
- saturating output G-infinity (log10) [4]: 1.85 ± 1.1

Variant: V136E S279T
- EC50 for IPTG (log10 µmol/L) [1]: 0.991 ± 0.11
- Hill coefficient n [2]: 2.42 ± 0.69
- basal output G0 (log10) [3]: 3.916 ± 0.02
- saturating output G-infinity (log10) [4]: 4.035 ± 0.0064

Variant: A138T A214V V244L
- EC50 for IPTG (log10 µmol/L) [1]: 1.808 ± 0.0078
- Hill coefficient n [2]: 1.61 ± 0.025
- basal output G0 (log10) [3]: 2.43 ± 0.047
- saturating output G-infinity (log10) [4]: 4.4294 ± 0.0033

Variant: I160F L185F
- EC50 for IPTG (log10 µmol/L) [1]: 3.06 ± 0.056
- Hill coefficient n [2]: 1.77 ± 0.11
- basal output G0 (log10) [3]: 2.08 ± 0.16
- saturating output G-infinity (log10) [4]: 4.19 ± 0.048

Variant: I160N Q231H I289V D302E
- EC50 for IPTG (log10 µmol/L) [1]: 2.6 ± 0.026
- Hill coefficient n [2]: 1.67 ± 0.073
- basal output G0 (log10) [3]: 2.06 ± 0.43
- saturating output G-infinity (log10) [4]: 4.284 ± 0.015

Variant: I160N R263S L305Q
- EC50 for IPTG (log10 µmol/L) [1]: 2.561 ± 0.022
- Hill coefficient n [2]: 1.61 ± 0.054
- basal output G0 (log10) [3]: 1.14 ± 0.59
- saturating output G-infinity (log10) [4]: 4.285 ± 0.012

Variant: F161L
- EC50 for IPTG (log10 µmol/L) [1]: 3.161 ± 0.0097
- Hill coefficient n [2]: 1.32 ± 0.022
- basal output G0 (log10) [3]: 1.83 ± 0.42
- saturating output G-infinity (log10) [4]: 4.38 ± 0.0037

Variant: F161S
- EC50 for IPTG (log10 µmol/L) [1]: 1.12 ± 0.017
- Hill coefficient n [2]: 1.43 ± 0.047
- basal output G0 (log10) [3]: 3.04 ± 0.036
- saturating output G-infinity (log10) [4]: 4.464 ± 0.0055

Variant: F161V
- EC50 for IPTG (log10 µmol/L) [1]: 2.58 ± 0.015
- Hill coefficient n [2]: 1.59 ± 0.044
- basal output G0 (log10) [3]: 1.98 ± 0.34
- saturating output G-infinity (log10) [4]: 4.455 ± 0.0069

Variant: L169P
- EC50 for IPTG (log10 µmol/L) [1]: 2.678 ± 0.026
- Hill coefficient n [2]: 1.34 ± 0.061
- basal output G0 (log10) [3]: 2.72 ± 0.067
- saturating output G-infinity (log10) [4]: 4.3 ± 0.0095

Variant: Q181H
- EC50 for IPTG (log10 µmol/L) [1]: 2.037 ± 0.0042
- Hill coefficient n [2]: 1.625 ± 0.015
- basal output G0 (log10) [3]: 2.24 ± 0.049
- saturating output G-infinity (log10) [4]: 4.4146 ± 0.0018

Variant: S190C
- EC50 for IPTG (log10 µmol/L) [1]: 2.091 ± 0.0053
- Hill coefficient n [2]: 1.65 ± 0.019
- basal output G0 (log10) [3]: 2.31 ± 0.049
- saturating output G-infinity (log10) [4]: 4.4474 ± 0.0025

Variant: A194V
- EC50 for IPTG (log10 µmol/L) [1]: 3.35 ± 0.048
- Hill coefficient n [2]: 1.61 ± 0.06
- basal output G0 (log10) [3]: 2.01 ± 0.08
- saturating output G-infinity (log10) [4]: 4.322 ± 0.041

Variant: G200C
- EC50 for IPTG (log10 µmol/L) [1]: 2.729 ± 0.016
- Hill coefficient n [2]: 1.58 ± 0.049
- basal output G0 (log10) [3]: 1.48 ± 0.68
- saturating output G-infinity (log10) [4]: 4.489 ± 0.0069

Variant: K203N D278V S280L I283V
- EC50 for IPTG (log10 µmol/L) [1]: 1.8 ± 0.022
- Hill coefficient n [2]: 1.73 ± 0.085
- basal output G0 (log10) [3]: 3.192 ± 0.021
- saturating output G-infinity (log10) [4]: 4.401 ± 0.009

Variant: N208Y
- EC50 for IPTG (log10 µmol/L) [1]: 2.01 ± 0.0066
- Hill coefficient n [2]: 1.64 ± 0.026
- basal output G0 (log10) [3]: 2.24 ± 0.14
- saturating output G-infinity (log10) [4]: 4.4021 ± 0.003

Variant: Q231R
- EC50 for IPTG (log10 µmol/L) [1]: 2.063 ± 0.0082
- Hill coefficient n [2]: 1.67 ± 0.03
- basal output G0 (log10) [3]: 2.29 ± 0.081
- saturating output G-infinity (log10) [4]: 4.3759 ± 0.0039

Variant: V271M
- EC50 for IPTG (log10 µmol/L) [1]: 2.089 ± 0.0097
- Hill coefficient n [2]: 1.64 ± 0.034
- basal output G0 (log10) [3]: 2.19 ± 0.19
- saturating output G-infinity (log10) [4]: 4.413 ± 0.0046

Variant: Y273H D278G Q335L E357G
- EC50 for IPTG (log10 µmol/L) [1]: 3.07 ± 0.09
- Hill coefficient n [2]: 1.62 ± 0.14
- basal output G0 (log10) [3]: 2.16 ± 0.11
- saturating output G-infinity (log10) [4]: 4.07 ± 0.075

Variant: S279T
- EC50 for IPTG (log10 µmol/L) [1]: 1.481 ± 0.012
- Hill coefficient n [2]: 1.48 ± 0.03
- basal output G0 (log10) [3]: 2.68 ± 0.034
- saturating output G-infinity (log10) [4]: 4.458 ± 0.0048

Variant: P285S V301M S308P M347V
- EC50 for IPTG (log10 µmol/L) [1]: 0.927 ± 0.019
- Hill coefficient n [2]: 1.33 ± 0.057
- basal output G0 (log10) [3]: 3.595 ± 0.017
- saturating output G-infinity (log10) [4]: 4.489 ± 0.0054

Variant: Q291L
- EC50 for IPTG (log10 µmol/L) [1]: 2.064 ± 0.017
- Hill coefficient n [2]: 1.61 ± 0.052
- basal output G0 (log10) [3]: 2.22 ± 0.21
- saturating output G-infinity (log10) [4]: 4.407 ± 0.0075

Variant: L296R
- EC50 for IPTG (log10 µmol/L) [1]: 4.37 ± 0.045
- Hill coefficient n [2]: 1.33 ± 0.051
- basal output G0 (log10) [3]: 2.995 ± 0.0098
- saturating output G-infinity (log10) [4]: 4.383 ± 0.025

Variant: V301M
- EC50 for IPTG (log10 µmol/L) [1]: 1.82 ± 0.049
- Hill coefficient n [2]: 1.53 ± 0.16
- basal output G0 (log10) [3]: 2.32 ± 0.83
- saturating output G-infinity (log10) [4]: 4.469 ± 0.021

Variant: Q317L
- EC50 for IPTG (log10 µmol/L) [1]: 2.051 ± 0.0097
- Hill coefficient n [2]: 1.66 ± 0.041
- basal output G0 (log10) [3]: 2.08 ± 0.5
- saturating output G-infinity (log10) [4]: 4.4477 ± 0.0044
